Experimental data published in patent publication US5993803A, “Method of reducing the severity of host vs graft reaction by down-regulating hsp60 autoimmunity” (Yeda Research and Development Co., Ltd., priority 1996, dated 1999).
“Also recorded” adds a separate entry of the source.

Experiments:
[1] = test system: spleen cells of treated NOD or C57BL mice stimulated with irradiated BALB/c spleen cells; test: Mixed lymphocyte reaction (MLR) of spleen cells from treated, grafted mice with irradiated BALB/c spleen cells; type: cell-based, mouse
Description: T cells reactive to hsp60 and other hsp molecules have been isolated from cardiac allografts (Moliterno et al., 1995) as well as from other inflammatory lesions (Selmaj et al., 1991; Mor et al., 1992). […] It is theorized that the constitutive hyper-expression of hsp60 in the donor Eα-hsp60 skin amplifies the activation of anti-hsp60 autoimmune T cells at the site and enhance the local immune response by adding pro-inflammatory (TH1-type) cytokines, such as INFγ (Finkelman et al., 1990), to the allograft reaction, thereby inciting and abetting other T cells responsive to the foreign antigens. Conversely, hsp60 autoimmune T cells that have been activated to produce anti-inflammatory cytokines of the TH2-type, such as IL-10, should serve to shut down the effector immune reaction by a form of by-stander suppression (Weiner et al., 1994). To test whether treatment with hsp60 peptides might modify the cytokine response, NOD or C57BL mice were treated with hsp60 or with hsp60 peptide p12. Control mice were untreated or were treated with saline emulsified in IFA. The mice were grafted with BALB/c skin grafts and twenty days later, just at the beginning of graft rejection in the control mice, groups of 5-10 mice were sacrificed and their spleen cells assayed individually in a standard mixed lymphocyte reaction (MLR) with irradiated BALB/c spleen cells as stimulators (Lohse et al., 1990). […] However, the MLR media were also tested for the presence of the TH1 cytokine IFNγ and the TH2 cytokine IL-10.

[2] = test system: BALB/c (H-2^d) skin allograft rejection in C57BL/6 (H-2^b) mice; type: in vivo, mouse; conditions: C57BL/6 recipients; 50 μg in incomplete Freund's adjuvant s.c. 2 weeks before transplantation; Wilcoxon test; FIG. 3A
Description: (§1) FIGS. 3A and 3B show the effects of treating C57BL6 (H-2^b) mice (FIG. 3A) or wild-type NOD (H-2^g7) mice (FIG. 3B) with hsp60 (50 μg in incomplete Freund's adjuvant; Sigma) administered subcutaneously in the back 2 weeks before transplantation of BALB/c (H-2^d) skin (Elias et al., 1994; Elias et al., 1995). […] Control mice were untreated (open squares) or treated with incomplete Freund's adjuvant containing 50 μg of recombinant glutathione transferase (open diamonds).

[3] = test system: BALB/c (H-2^d) skin allograft rejection in wild-type NOD (H-2^g7) mice; type: in vivo, mouse; conditions: wild-type NOD recipients; 50 μg in incomplete Freund's adjuvant s.c. 2 weeks before transplantation; Wilcoxon test; FIG. 3B
Description: as §1
Wild-type NOD (H-2^g7) mice were treated with various hsp60 peptides in incomplete Freund's adjuvant. […] Control mice were untreated (open square) or were treated with incomplete Freund's adjuvant containing 50 μg of peptide p11, a control non-immunogenic hsp60 peptide (closed diamond). […] Each group contained 10-12 mice.
Patches of dorsal skin of one cm^2 were removed from anesthetized recipient mice treated with Nembutal 6 mg/ml, 0.25 ml per mouse and replaced by the donor skin grafts. Histoacryl (B. Braun Meleungen AG, D-34209 Melsungen, Germany) was applied around the grafts and Nobecutan (ASTR, Astra Tech, POB 13, Glos G15, UK) was sprayed over them.

B1: hsp60: Recombinant human 60 kDa heat shock protein, SEQ ID NO:1 (protein, UniProt P10809 27-573, looked up)
60 kDa heat shock protein, …: AKDVKFGADARALMLQGVDLLADAVAVTMGPKGRTVIIEQSWGSPKVTKDGVTVAKSIDLKDKYKNIGAKLVQDVANNTNEEAGDGTTTATVLARSIAKEGFEKISKGANPVEIRRGVMLAVDAVIAELKKQSKPVTTPEEIAQVATISANGDKEIGNIISDAMKKVGRKGVITVKDGKTLNDELEIIEGMKFDRGYISPYFINTSKGQKCEFQDAYVLLSEKKISSIQSIVPALEIANAHRKPLVIIAEDVDGEALSTLVLNRLKVGLQVVAVKAPGFGDNRKNQLKDMAIATGGAVFGEEGLTLNLEDVQPHDLGKVGEVIVTKDDAMLLKGKGDKAQIEKRIQEIIEQLDVTTSEYEKEKLNERLAKLSDGVAVLKVGGTSDVEVNEKKDRVTDALNATRAAVEEGIVLGGGCALLRCIPALDSLTPANEDQKIGIEIIKRTLKIPAMTIAKNAGVEGSLIVEKIMQSSSEVGYDAMAGDFVNMVEKGIIDPTKVVRTALLDAAGVASLLTTAEVVVTEIPKEEKDPGMGAMGGMGGGMGGGMF
[1]; spleen cells taken 20 days after BALB/c skin grafting, hsp60 and p12 treated mice reported together
  T-cell proliferation by thymidine incorporation in MLR, treated vs control groups: no significant differences
[1]; spleen cells taken 20 days after grafting, hsp60 and p12 treated mice pooled, control mice 3.5±0.6, p=0.004
  IL-10 produced in MLR media: 8 ± 1.4 ng/mL
[1]; spleen cells taken 20 days after grafting, hsp60 and p12 treated mice pooled, control mice 9.25±1.7, p=0.002
  IFNγ produced in MLR media: 3.13 ± 1.4 ng/mL
[2]
  survival of BALB/c skin grafts (delay in skin allograft rejection): significantly prolonged survival; also recorded: significant
[3]
  survival of BALB/c skin grafts (delay in skin allograft rejection): delayed rejection; also recorded: significant
